The results in this text go back to patent US20090099029A1, “Methods and substrates for conducting assays” (Invitrogen Corporation, priority 2005, published 2009).

The test system of the data set is kinases of Table 6 on Myelin Basic Protein (MBP). Briefly: Kinase assay using MBP substrate, ProQ Diamond stain (Table 6). In kind it is biochemical. As to conditions: kinase printed on MBP-coated slide; 20 uM ATP, 30° C.; ProQ Diamond Microarray Stain; graded Strong/Weak/Negative. The method in brief:
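Bovine dephosphorylated MBP coated on aldehyde- or epoxy-glass slides, kinases printed on top; reaction buffer pH 7.5 with 4 mM MgCl2, 20 uM ATP, 5% DMSO, ± inhibitor, at 30° C. Phosphorylation detected by ProQ Diamond stain, 30 min in dark.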

B1: RPS6KA2(RSK3) (protein)
chain: MDLSMKKFAVRRFFSVYLRRKSRSKSSSLSRLEEEGVVKEIDISHHVKEGFEKADPSQFELLKVLGQGSYGKVFLVRKVKGSDAGQLYAMKVLKKATLKVRDRVRSKMERDILAEVNHPFIVKLHYAFQTEGKLYLILDFLRGGDLFTRLSKEVMFTEEDVKFYLAELALALDHLHSLGIIYRDLKPENILLDEEGHIKITDFGLSKEAIDHDKRAYSFCGTIEYMAPEVVNRRGHTQSADWWSFGVLMFEMLTGSLPFQGKDRKETMALILKAKLGMPQFLSGEAQSLLRALFKRNPCNRLGAGIDGVEEIKRHPFFVTIDWNTLYRKEIKPPFKPAVGRPEDTFHFDPEFTARTPTDSPGVPPSANAHHLFRGFSFVASSLIQEPSQQDLHKVPVHPIVQQLHGNNIHFTDGYEIKEDIGVGSYSVCKRCVHKATDTEYAVKIIDKSKRDPSEEIEILLRYGQHPNIITLKDVYDDGKFVYLVMELMRGGELLDRILRQRYFSEREASDVLCTITKTMDYLHSQGVVHRDLKPSNILYRDESGSPESIRVCDFGFAKQLRAGNGLLMTPCYTANFVAPEVLKRQGYDAACDIWSLGILLYTMLAGFTPFANGPDDTPEEILARIGSGKYALSGGNWDSISDAAKDVVSKMLHVDPHQRLTAMQVLKHPWVVNREYLSPNQLSRQDVHLVKGAMAATYFALNRTPQAPRLEPVLSSNLAQRRGMKRLTSTRL
modifications: left off: small tags and cut ends
With B1, the “MBP Kinase Activity” value is on record as “Negative”.

B2: ROCK2 (protein)
chain: MSRPPPTGKMPGAPETAPGDGAGASRQRKLEALIRDPRSPINVESLLDGLNSLVLDLDFPALRKNKNIDNFLNRYEKIVKKIRGLQMKAEDYDVVKVIGRGAFGEVQLVRHKASQKVYAMKLLSKFEMIKRSDSAFFWEERDIMAFANSPWVVQLFYAFQDDRYLYMVMEYMPGGDLVNLMSNYDVPEKWAKFYTAEVVLALDAIHSMGLIHRDVKPDNMLLDKHGHLKLADFGTCMKMDETGMVHCDTAVGTPDYISPEVLKSQGGDGFYGRECDWWSVGVFLYEMLVGDTPFYADSLVGTYSKIMDHKNSLCFPEDAEISKHAKNLICAFLTDREVRLGRNGVEEIRQHPFFKNDQWHWDNIRETAAPVVPELSSDIDSSNFDDIEDDKGDVETFPIPKAFVGNQLPFIGFTYYRENLLLSDSPSCRETDSIQSRKNEESQEIQKKLYTLEEHLSNEMQAKEELEQKCKSVNTRLEKTAKELEEEITLRKSVESALRQLEREKALLQHKNAEYQRKADHEADKKRNLENDVNSLKDQLEDLKKRNQNSQI
modifications: left off: a dimerising Fc or GST
Consider B2, for which the “MBP Kinase Activity” value was “Strong”.

B3: ROCK1 (protein)
chain: MSTGDSFETRFEKMDNLLRDPKSEVNSDCLLDGLDALVYDLDFPALRKNKNIDNFLSRYKDTINKIRDLRMKAEDYEVVKVIGRGAFGEVQLVRHKSTRKVYAMKLLSKFEMIKRSDSAFFWEERDIMAFANSPWVVQLFYAFQDDRYLYMVMEYMPGGDLVNLMSNYDVPEKWARFYTAEVVLALDAIHSMGFIHRDVKPDNMLLDKSGHLKLADFGTCMKMNKEGMVRCDTAVGTPDYISPEVLKSQGGDGYYGRECDWWSVGVFLYEMLVGDTPFYADSLVGTYSKIMNHKNSLTFPDDNDISKEAKNLICAFLTDREVRLGRNGVEEIKRHLFFKNDQWAWETLRDTVAPVVPDLSSDIDTSNFDDLEEDKGEEETFPIPKAFVGNQLPFVGFTYYSNRRYLSSANPNDNRTSSNADKSLQESLQKTIYKLEEQLHNEMQLKDEMEQKCRTSNIKLDKIMKELDEEGNQRRNLESTVSQIEKEKMLLQHRINEYQRKAEQENEKRRNVENEVSTLKDQLEDLKKVSQNSQL
modifications: left off: a dimerising Fc or GST
As for B3, the “MBP Kinase Activity” value is on record as “Strong”.

B4: EPHB3 (protein)
chain: CLRKQRHGSDSEYTEKLQQYIAPGMKVYIDPFTYEDPNEAVREFAKEIDVSCVKIEEVIGAGEFGEVCRGRLKQPGRREVFVAIKTLKVGYTERQRRDFLSEASIMGQFDHPNIIRLEGVVTKSRPVMILTEFMENCALDSFLRLNDGQFTVIQLVGMLRGIAAGMKYLSEMNYVHRDLAARNILVNSNLVCKVSDFGLSRFLEDDPSDPTYTSSLGGKIPIRWTAPEAIAYRKFTSASDVWSYGIVMWEVMSYGERPYWDMSNQDVINAVEQDYRLPPPMDCPTALHQLMLDCWVRDRNLRPKFSQIVNTLDKLIRNAASLKVIASAQSGMSQPLLDRTVPDYTTFTTVGDWLDAIKMGRYKESFVSAGFASFDLVAQMTAEDLLRIGVTLAGHQKKILSSIQDMRLQMNQTLPVQV
modifications: left off: a dimerising Fc or GST
With B4, the “MBP Kinase Activity” value is listed as “Strong”.

B5: RPS6KA1(RSK1) (protein)
chain: MPLAQLKEPWPLMELVPLDPENGQTSGEEAGLQPSKDEGVLKEISITHHVKAGSEKADPSHFELLKVLGQGSFGKVFLVRKVTRPDSGHLYAMKVLKKATLKVRDRVRTKMERDILADVNHPFVVKLHYAFQTEGKLYLILDFLRGGDLFTRLSKEVMFTEEDVKFYLAELALGLDHLHSLGIIYRDLKPENILLDEEGHIKLTDFGLSKEAIDHEKKAYSFCGTVEYMAPEVVNRQGHSHSADWWSYGVLMFEMLTGSLPFQGKDRKETMTLILKAKLGMPQFLSTEAQSLLRALFKRNPANRLGSGPDGAEEIKRHVFYSTIDWNKLYRREIKPPFKPAVAQPDDTFYFDTEFTSRTPKDSPGIPPSAGAHQLFRGFSFVATGLMEDDGKPRAPQAPLHSVVQQLHGKNLVFSDGYVVKETIGVGSYSECKRCVHKATNMEYAVKVIDKSKRDPSEEIEILLRYGQHPNIITLKDVYDDGKHVYLVTELMRGGELLDKILRQKFFSEREASFVLHTIGKTVEYLHSQGVVHRDLKPSNILYVDESGNPECLRICDFGFAKQLRAENGLLMTPCYTANFVAPEVLKRQGYDEGCDIWSLGILLYTMLAGYTPFANGPSDTPEEILTRIGSGKFTLSGGNWNTVSETAKDLVSKMLHVDPHQRLTAKQVLQHPWVTQKDKLPQSQLSHQDLQLVKGAMAATYSALNSSKPTPQLKPIESSILAQRRVRKLPSTTL
modifications: left off: small tags and cut ends
For B5, the “MBP Kinase Activity” value is “Strong”.

B6: PRKD2(PKD2) (protein)
chain: MATAPSYPAGLPGSPGPGSPPPPGGLELQSPPPLLPQIPAPGSGVSFHIQIGLTREFVLLPAASELAHVKQLACSIVDQKFPECGFYGLYDKILLFKHDPTSANLLQLVRSSGDIQEGDLVEVVLSASATFEDFQIRPHALTVHSYRAPAFCDHCGEMLFGLVRQGLKCDGCGLNYHKRCAFSIPNNCSGARKRRLSSTSLASGHSVRLGTSESLPCTAEELSRSTTELLPRRPPSSSSSSSASSYTGRPIELDKMLLSKVKVPHTFLIHSYTRPTVCQACKKLLKGLFRQGLQCKDCKFNCHKRCATRVPNDCLGEALINGDVPMEEATDFSEADKSALMDESEDSGVIPGSHSENALHASEEEEGEGGKAQSSLGYIPLMRVVQSVRHTTRKSSTTLREGWVVHYSNKDTLRKRHYWRLDCKCITLFQNNTTNRYYKEIPLSEILTVESAQNFSLVPPGTNPHCFEIVTANATYFVGEMPGGTPGGPSGQGAEAARGWETAIRQALMPVILQDAPSAPGHAPHRQASLSISVSNSQIQENVDIATVYQIFPDEVLGSGQFGVVYGGKHRKTGRDVAVKVIDKLRFPTKQESQLRNEVAILQSLRHPGIVNLECMFETPEKVFVVMEKLHGDMLEMILSSEKGRLPERLTKFLITQILVALRHLHFKNIVHCDLKPENVLLASADPFPQVKLCDFGFARIIGEKSFRRSVVGTPAYLAPEVLLNQGYNRSLDMWSVGVIMYVSLSGTFPFNEDEDINDQIQNAAFMYPASPWSHISAGAIDLINNLLQVKMRKRYSVDKSLSHPWLQEYQTWLDLRELEGKMGERYITHESDDARWEQFAAEHPLPGSGLPTDRDLGGACPPQDHDMQGLAERISVL
modifications: left off: a dimerising Fc or GST
Take B6: the “MBP Kinase Activity” value is on record as “Strong”.

B7: PRKX (protein)
chain: MEAPGLAQAAAAESDSRKVAEETPDGAPALCPSPEALSPEPPVYSLQDFDTLATVGTGTFGRVHLVKEKTAKHFFALKVMSIPDVIRLKQEQHVHNEKSVLKEVSHPFLIRLFWTWHDERFLYMLMEYVPGGELFSYLRNRGRFSSTTGLFYSAEIICAIEYLHSKEIVYRDLKPENILLDRDGHIKLTDFGFAKKLVDRTWTLCGTPEYLAPEVIQSKGHGRAVDWWALGILIFEMLSGFPPFFDDNPFGIYQKILAGKIDFPRHLDFHVKDLIKKLLVVDRTRRLGNMKNGANDVKHHRWFRSVDWEAVPQRKLKPPIVPKIAGDGDTSNFETYPENDWDTAAPVPQKDLEIFKNF
modifications: left off: a dimerising Fc or GST
On to B7, for which the “MBP Kinase Activity” value is recorded as “Negative”.

B8: PRKCN(PKD3) (protein)
chain: MSANNSPPSAQKSVLPTAIPAVLPAASPCSSPKTGLSARLSNGSFSAPSLTNSRGSVHTVSFLLQIGLTRESVTIEAQELSLSAVKDLVCSIVYQKFPECGFFGMYDKILLFRHDMNSENILQLITSADEIHEGDLVEVVLSALATVEDFQIRPHTLYVHSYKAPTFCDYCGEMLWGLVRQGLKCEGCGLNYHKRCAFKIPNNCSGVRKRRLSNVSLPGPGLSVPRPLQPEYVALPSEESHVHQEPSKRIPSWSGRPIWMEKMVMCRVKVPHTFAVHSYTRPTICQYCKRLLKGLFRQGMQCKDCKFNCHKRCASKVPRDCLGEVTFNGEPSSLGTDTDIPMDIDNNDINSDSSRGLDDTEEPSPPEDKMFFLDPSDLDVERDEEAVKTISPSTSNNIPLMRVVQSIKHTKRKSSTMVKEGWMVHYTSRDNLRKRHYWRLDSKCLTLFQNESGSKYYKEIPLSEILRISSPRDFTNISQGSNPHCFEIITDTMVYFVGENNGDSSHNPVLAATGVGLDVAQSWEKAIRQALMPVTPQASVCTSPGQGKDHKDLSTSISVSNCQIQENVDISTVYQIFADEVLGSGQFGIVYGGKHRKTGRDVAIKVIDKMRFPTKQESQLRNEVAILQNLHHPGIVNLECMFETPERVFVVMEKLHGDMLEMILSSEKSRLPERITKFMVTQILVALRNLHFKNIVHCDLKPENVLLASAEPFPQVKLCDFGFARIIGEKSFRRSVVGTPAYLAPEVLRSKGYNRSLDMWSVGVIIYVSLSGTFPFNEDEDINDQIQNAAFMYPPNPWREISGEAIDLINNLLQVKMRKRYSVDKSLSHPWLQDYQTWLDLREFETRIGERYITHESDDARWEIHAYTHNLVYPKHFIMAPNPDDMEEDP
modifications: left off: a dimerising Fc or GST
On to B8, for which the “MBP Kinase Activity” value was “Weak”.
